Experimental data published in IntAct's records for PubMed 25910212.

B1: Emerin (Homo sapiens), P50402 (parent)
chain: MDNYADLSDTELTTLLRRYNIPHGPVVGSTRRLYEKKIFEYETQRRRLSPPSSSAASSYSFSDLNSTRGDADMYDLPKKEDALLYQSKGYNDDYYEESYFTTRTYGEPESAGPSRAVRQSVTSFPDADAFHHQVHDDDLLSSSEEECKDRERPMYGRDSAYQSITHYRPVSASRSSLDLSYYPTSSSTSFMSSSSSSSSWLTRRAIRPENRAPGAGLGQDRQVPLWGQLLLFLVFVIVLFFIYHFMQAEEGNPF
partner: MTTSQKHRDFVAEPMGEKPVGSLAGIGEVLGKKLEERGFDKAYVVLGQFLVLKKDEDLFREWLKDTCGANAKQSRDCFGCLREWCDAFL
B2: Acetylcholine receptor subunit gamma (Homo sapiens), P07510-2 (parent)
chain: MHGGQGPLLLLLLLAVCLGAQGRNQEERLLADLMQNYDPNLRPAERDSDVVNVSLKLTLTNLISLNEREEALTTNVWIEMQWCDYRLRWDPRDYEGLWVLRVPSTMVWRPDIVLENKSQTYSTNEIDLQLSQEDGQTIEWIFIDPEAFTENGEWAIQHRPAKMLLDPAAPAQEAGHQKVVFYLLIQRKPLFYVINIIAPCVLISSVAILIHFLPAKAGGQKCTVAINVLLAQTVFLFLVAKKVPETSQAVPLISKYLTFLLVVTILIVVNAVVVLNVSLRSPHTHSMARGVRKVFLRLLPQLLRMHVRPLAPAAVQDTQSRLQNGSSGWSITTGEEVALCLPRSELLFQQWQRQGLVAAALEKLEKGPELGLSQFCGSLKQAAPAIQACVEACNLIACARHQQSHFDNGNEEWFLVGRVLDRVCFLAMLSLFICGTAGIFLMAHYNRVPALPFPGDPRPYLPSPD
partner: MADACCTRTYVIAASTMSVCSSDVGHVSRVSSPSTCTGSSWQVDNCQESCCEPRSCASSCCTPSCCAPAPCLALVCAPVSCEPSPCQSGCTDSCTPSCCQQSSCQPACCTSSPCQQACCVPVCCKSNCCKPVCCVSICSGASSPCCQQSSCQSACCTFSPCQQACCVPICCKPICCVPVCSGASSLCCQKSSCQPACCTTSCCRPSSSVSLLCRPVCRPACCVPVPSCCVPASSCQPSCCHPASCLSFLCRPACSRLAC
B3: Ribose-phosphate pyrophosphokinase 1 (Homo sapiens), P60891 (parent)
chain: MPNIKIFSGSSHQDLSQKIADRLGLELGKVVTKKFSNQETCVEIGESVRGEDVYIVQSGCGEINDNLMELLIMINACKIASASRVTAVIPCFPYARQDKKDKSRAPISAKLVANMLSVAGADHIITMDLHASQIQGFFDIPVDNLYAEPAVLKWIRENISEWRNCTIVSPDAGGAKRVTSIADRLNVDFALIHKERKKANEVDRMVLVGDVKDRVAILVDDMADTCGTICHAADKLLSAGATRVYAILTHGIFSGPAISRINNACFEAVVVTNTIPQEDKMKHCSKIQVIDISMILAEAIRRTHNGESVSYLFSHVPL
partner: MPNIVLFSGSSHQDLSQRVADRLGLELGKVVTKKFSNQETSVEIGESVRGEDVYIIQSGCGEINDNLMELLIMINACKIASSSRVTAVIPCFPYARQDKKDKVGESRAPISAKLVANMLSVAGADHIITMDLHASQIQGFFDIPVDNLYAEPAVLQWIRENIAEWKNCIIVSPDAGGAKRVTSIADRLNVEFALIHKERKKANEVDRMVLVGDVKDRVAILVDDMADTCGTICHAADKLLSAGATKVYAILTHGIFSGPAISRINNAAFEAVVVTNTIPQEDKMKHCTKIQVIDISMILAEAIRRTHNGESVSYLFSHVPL
B4: U4/U6 small nuclear ribonucleoprotein Prp31 (Homo sapiens), Q8WWY3 (parent)
chain: MSLADELLADLEEAAEEEEGGSYGEEEEEPAIEDVQEETQLDLSGDSVKTIAKLWDSKMFAEIMMKIEEYISKQAKASEVMGPVEAAPEYRVIVDANNLTVEIENELNIIHKFIRDKYSKRFPELESLVPNALDYIRTVKELGNSLDKCKNNENLQQILTNATIMVVSVTASTTQGQQLSEEELERLEEACDMALELNASKHRIYEYVESRMSFIAPNLSIIIGASTAAKIMGVAGGLTNLSKMPACNIMLLGAQRKTLSGFSSTSVLPHTGYIYHSDIVQSLPPDLRRKAARLVAAKCTLAARVDSFHESTEGKVGYELKDEIERKFDKWQEPPPVKQVKPLPAPLDGQRKKRGGRRYRKMKERLGLTEIRKQANRMSFGEIEEDAYQEDLGFSLGHLGKSGSGRVRQTQVNEATKARISKTLQRTLQKQSVVYGGKSTIRDRSSGTASSVAFTPLQGLEIVNPQAAEKKVAEANQKYFSSMAEFLKVKGEKSGLMST
partner: B2 partner

Variants of: B1
Details: with baf_human BANF1, O75531

Row | Variant | effect of a mutation on the interaction
1 | MDNYADLSDTELTTLLRRYNIPHGPVVGSTRRLYEKKIFEYETQRRRLSPPSSFAASSYSFSDLNSTRGDADMYDLPKKEDALLYQSKGYNDDYYEESYFTTRTYGEPESAGPSRAVRQSVTSFPDADAFHHQVHDDDLLSSSEEECKDRERPMYGRDSAYQSITHYRPVSASRSSLDLSYYPTSSSTSFMSSSSSSSSWLTRRAIRPENRAPGAGLGQDRQVPLWGQLLLFLVFVIVLFFIYHFMQAEEGNPF [S54F] | with no effect
2 | MDNYADLSDTELTTLLRRYNIPHGPVVGSTRRLYEKKIFEYETQRRRLSPPSSSAASSYSFSDLNSTRGDAVMYDLPKKEDALLYQSKGYNDDYYEESYFTTRTYGEPESAGPSRAVRQSVTSFPDADAFHHQVHDDDLLSSSEEECKDRERPMYGRDSAYQSITHYRPVSASRSSLDLSYYPTSSSTSFMSSSSSSSSWLTRRAIRPENRAPGAGLGQDRQVPLWGQLLLFLVFVIVLFFIYHFMQAEEGNPF [D72V] | with no effect

Variants of: B2
Details: with kr108_human KRTAP10-8, P60410

Row | Variant | effect of a mutation on the interaction
3 | MHGGQGPLLLLLLLAVCLGAQGRNQEERLLADLMQNYDPNLRPAERDSDVVNVSLKLTLTNLISLNEREEALTTNVWIEMQWCDYRLRWDPRDYEGLWVLRVPSTMVWRPDIVLENKSQTYSTNEIDLQLSQEDGQTIEWIFIDPEAFTENGEWAIQHRPAKMLLDPAAPAQEAGHQKVVFYLLIQCKPLFYVINIIAPCVLISSVAILIHFLPAKAGGQKCTVAINVLLAQTVFLFLVAKKVPETSQAVPLISKYLTFLLVVTILIVVNAVVVLNVSLRSPHTHSMARGVRKVFLRLLPQLLRMHVRPLAPAAVQDTQSRLQNGSSGWSITTGEEVALCLPRSELLFQQWQRQGLVAAALEKLEKGPELGLSQFCGSLKQAAPAIQACVEACNLIACARHQQSHFDNGNEEWFLVGRVLDRVCFLAMLSLFICGTAGIFLMAHYNRVPALPFPGDPRPYLPSPD [R187C] | disrupting interaction strength
4 | MHGGQGPLLLLLLLAVCLGAQGRNQEERLLADLMQNYDPNLRPAERDSDVVNVSLKLTLTNLISLNEREEALTTNVWIEMQWCDYRLRWDPRDYEGLWVLRVPSTMGWRPDIVLENKSQTYSTNEIDLQLSQEDGQTIEWIFIDPEAFTENGEWAIQHRPAKMLLDPAAPAQEAGHQKVVFYLLIQRKPLFYVINIIAPCVLISSVAILIHFLPAKAGGQKCTVAINVLLAQTVFLFLVAKKVPETSQAVPLISKYLTFLLVVTILIVVNAVVVLNVSLRSPHTHSMARGVRKVFLRLLPQLLRMHVRPLAPAAVQDTQSRLQNGSSGWSITTGEEVALCLPRSELLFQQWQRQGLVAAALEKLEKGPELGLSQFCGSLKQAAPAIQACVEACNLIACARHQQSHFDNGNEEWFLVGRVLDRVCFLAMLSLFICGTAGIFLMAHYNRVPALPFPGDPRPYLPSPD [V107G] | disrupting interaction strength
5 | MHGGQGPLLLLLLLAVCLGAQGRNQEERLLADLMQNYDPNLRPAERDSDVVNVSLKLTLTNLISLNEREEALTTNVWIEMQWCDYCLRWDPRDYEGLWVLRVPSTMVWRPDIVLENKSQTYSTNEIDLQLSQEDGQTIEWIFIDPEAFTENGEWAIQHRPAKMLLDPAAPAQEAGHQKVVFYLLIQRKPLFYVINIIAPCVLISSVAILIHFLPAKAGGQKCTVAINVLLAQTVFLFLVAKKVPETSQAVPLISKYLTFLLVVTILIVVNAVVVLNVSLRSPHTHSMARGVRKVFLRLLPQLLRMHVRPLAPAAVQDTQSRLQNGSSGWSITTGEEVALCLPRSELLFQQWQRQGLVAAALEKLEKGPELGLSQFCGSLKQAAPAIQACVEACNLIACARHQQSHFDNGNEEWFLVGRVLDRVCFLAMLSLFICGTAGIFLMAHYNRVPALPFPGDPRPYLPSPD [R86C] | disrupting interaction strength

Variants of: B3
Details: with PRPS2, P11908-2

Row | Variant | effect of a mutation on the interaction
6 | MPNIKIFSGSSHQDLSQKIADRLGLELGKVVTKKFSNQETCVEIGESVRGEDVYIVQSGCGEINDNLMELLIMINACKIASASRVTAVIPCFPYARQDKKDKSRAPISAKLVANMLSVAGADHIITMDLHASQIQGFFDIPVDNLYAEPAVLKWIRENISEWRNCTIVSPDAGGAKRVTSIAHRLNVDFALIHKERKKANEVDRMVLVGDVKDRVAILVDDMADTCGTICHAADKLLSAGATRVYAILTHGIFSGPAISRINNACFEAVVVTNTIPQEDKMKHCSKIQVIDISMILAEAIRRTHNGESVSYLFSHVPL [D183H] | with no effect
7 | MPNIKIFSGSSHQDLSQKIADRLGLELGKVVTKKFSNQETCVEIGESVRGEDVYIVQSGCGEINDNLMELLIMINACKIASASRVTAVIPCFPYARQDKKDKSRAPISAKLVASMLSVAGADHIITMDLHASQIQGFFDIPVDNLYAEPAVLKWIRENISEWRNCTIVSPDAGGAKRVTSIADRLNVDFALIHKERKKANEVDRMVLVGDVKDRVAILVDDMADTCGTICHAADKLLSAGATRVYAILTHGIFSGPAISRINNACFEAVVVTNTIPQEDKMKHCSKIQVIDISMILAEAIRRTHNGESVSYLFSHVPL [N114S] | with no effect
8 | MPNIKIFSGSSHQDLSQKIADRLGLELGKVVTKKFSNQETCVEIGESVRGEHVYIVQSGCGEINDNLMELLIMINACKIASASRVTAVIPCFPYARQDKKDKSRAPISAKLVANMLSVAGADHIITMDLHASQIQGFFDIPVDNLYAEPAVLKWIRENISEWRNCTIVSPDAGGAKRVTSIADRLNVDFALIHKERKKANEVDRMVLVGDVKDRVAILVDDMADTCGTICHAADKLLSAGATRVYAILTHGIFSGPAISRINNACFEAVVVTNTIPQEDKMKHCSKIQVIDISMILAEAIRRTHNGESVSYLFSHVPL [D52H] | with no effect

Variants of: B4
Details: with kr108_human KRTAP10-8, P60410

Row | Variant | effect of a mutation on the interaction
9 | MSLADELLADLEEAAEEEEGGSYGEEEEEPAIEDVQEETQLDLSGDSVKTIAKLWDSKMFAEIMMKIEEYISKQAKASEVMGPVEAAPEYRVIVDANNLTVEIENEVNIIHKFIRDKYSKRFPELESLVPNALDYIRTVKELGNSLDKCKNNENLQQILTNATIMVVSVTASTTQGQQLSEEELERLEEACDMALELNASKHRIYEYVESRMSFIAPNLSIIIGASTAAKIMGVAGGLTNLSKMPACNIMLLGAQRKTLSGFSSTSVLPHTGYIYHSDIVQSLPPDLRRKAARLVAAKCTLAARVDSFHESTEGKVGYELKDEIERKFDKWQEPPPVKQVKPLPAPLDGQRKKRGGRRYRKMKERLGLTEIRKQANRMSFGEIEEDAYQEDLGFSLGHLGKSGSGRVRQTQVNEATKARISKTLQRTLQKQSVVYGGKSTIRDRSSGTASSVAFTPLQGLEIVNPQAAEKKVAEANQKYFSSMAEFLKVKGEKSGLMST [L107V] | with no effect
